In patent publication US12171803B2, “Methods of CD40 and toll like receptor immune activation” (MEMGEN, INC., priority 2017, dated 2024):

Test system: B16.F10 tumors
Assay: Tumor growth of B16.F10 tumors subcutaneously implanted in mice
Type: in vivo
Settings: ISF35 combination therapy versus agonist CD40 antibody combination therapy; B16.F10 tumors subcutaneously implanted in C54/BL6 mice
Description: Tumor growth curves of B16.F10 tumors subcutaneously implanted in C54/BL6 mice. Individual animal tumor growth curves are shown.

B1: ISF35: chimeric CD154 polypeptide; domain IV of human CD154 linked to domains I, II and III of human CD154; SEQ ID NO 6 (protein)
chain: MIETYNQTSPRSAATGLPISMKIFMYLLTVFLITQMIGSALFAVYLHRRLDKIEDERNLHEDFVFMKTIQRCNTGERSLSLLNCEEIKSQFEGFVKDIMLNKEETKKDEDPQIAAHVVSEANSNAASVLQWAKKGYYTMKSNLVTLENGKQLTVKRQGLYYIYAQVTFCSNREASSQAPFIVGLWLKPSSGSERILLKAANTHSSSQLCEQQSIHLGGVFELQPGASVFVNVTDPSQVSHGTGFTSFGLLKL
modifications: ISF35 (MEM40)
  Tumor growth curves (activity of combination therapy): Superior activity
